Results published in patent US20090130697A1 (COLORADO STATE UNIVERSITY RESEARCH FOUNDATION, published 2009).

Target: FLS:Trg:EnvZ:AHK4 hybrid transmembrane histidine kinase (FLS2 plant leader, Trg extracellular domain, EnvZ, …)
Test: cell-based or functional assay

- GUS expression from the ARR5 promoter in transgenic Arabidopsis in response to TNT: ~2 fold
B1: SS-TNT, computationally designed TNT receptor (sensor protein): PEX secretory sequence fused to the periplasmic ribose binding protein engineered to bind TNT (designed binder)
chain: MERPFGCFFILLLISYTVVAKDTIALVVSTLNSPFLVSLKDGAQKEADKLGYNLVVLDSQNNPAKELANVQDLTVRGTKILLINPTDSDAVGNAVKMANQANIPVITLSSQATKGEVVSHIASDNVLGGKIAGDYIAKKAGEGAKVIELQGIAGTSSARESGEGFQQAVAAHKFNVLASQPADIDRIKGLNVMQNLLTAHPDVQAVFAQFDEMALGALRALQTAGKSDVMVVGFSGTPDGEKAVNDGKLAATIASLPDQIGAKGVETADKVLKGEKVQAKYPVDLKLVVKQDYKDDDDK
